# Reference: publication PMC11838012, “TRAM-LAG1-CLN8 family proteins are acyltransferases regulating phospholipid composition” (Science Advances, 2025)
# T1: TLCD1 (Homo sapiens, UniProt Q96CP7)
# T1 construct: full length, C-terminal FLAG and Strep tags kept; expressed in Flp-In T-REx 293 cells; purified in LMNG; monomer in micelles
# T1 sequence (Q96CP7 36-247): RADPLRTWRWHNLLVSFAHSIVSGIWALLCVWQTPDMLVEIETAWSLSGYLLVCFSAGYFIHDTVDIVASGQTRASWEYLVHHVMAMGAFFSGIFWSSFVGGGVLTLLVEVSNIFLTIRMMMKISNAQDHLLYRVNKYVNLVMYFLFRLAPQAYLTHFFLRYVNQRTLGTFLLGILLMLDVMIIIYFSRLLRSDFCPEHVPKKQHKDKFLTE
# Tests used:
# Test in all cases: LC-MS/MS initial-rate acyltransferase assay
# TLCD1 = molecular target: T1, TLCD1; assay type: biochemical; conditions: 100 uM oleoyl-CoA; pH 7.4, 30 C, 0.05% LMNG; shares the LPE site
# [1] = substrate: CCCCCCCC/C=C\CCCCCCCC(=O)OC[C@@H](O)COP(=O)(O)OCCN; assay type: biochemical, Homo sapiens; conditions: 100 uM oleoyl-CoA, pH 7.4, 30 C, 0.05% LMNG
# [2] = substrate: CCCCCCCC/C=C\CCCCCCCC(=O)OC[C@@H](O)COP(=O)(O)OCCN; assay type: biochemical, Saccharomyces cerevisiae; conditions: 100 uM palmitoleoyl-CoA, pH 7.4, 30 C, 0.05% LMNG
# [3] = substrate: CCCCCCCC/C=C\CCCCCCCC(=O)OC[C@@H](O)COP(=O)(O)OCCN; assay type: biochemical, Caenorhabditis elegans; conditions: 100 uM myristoyl-CoA, pH 7.4, 30 C, 0.05% LMNG
molecule,measurement,setting,value
Cc1ncc(C[n+]2csc(CCO)c2C)c(N)n1 [thiamine],LC-MS/MS initial-rate acyltransferase assay,TLCD1,a linear increase in the initial reaction rate (Vo) even at millimolar thiamine levels
"TLCD1 (Homo sapiens) (protein, full length, C-terminal FLAG and Strep tags kept; expressed in Flp-In T-REx 293 cells; purified in LMNG; monomer in micelles) RADPLRTWRWHNLLVSFAHSIVSGIWALLCVWQTPDMLVEIETAWSLSGYLLVCFSAGYFIHDTVDIVASGQTRASWEYLVHHVMAMGAFFSGIFWSSFVGGGVLTLLVEVSNIFLTIRMMMKISNAQDHLLYRVNKYVNLVMYFLFRLAPQAYLTHFFLRYVNQRTLGTFLLGILLMLDVMIIIYFSRLLRSDFCPEHVPKKQHKDKFLTE",Km,[1],67.5 µM
same,kcat,[1],0.348 s⁻¹
"YPR114w (Saccharomyces cerevisiae S288C) (protein, full length, C-terminal His tag cut off by Factor Xa; expressed in S. cerevisiae BJ2168; purified in LMNG) MDVLLSLPQPELFKTTVIPFLANRNIIKSEAILSNLHSIFYVAIFYHIWFLFGKWILFPHLVKWKLDYDQKHNVKKDEKTTSERQAQHYKKKYTSLINQSSVHLISLLQSIVVLYYSLKFLLDPKASAEPYQTSHSRVFTENRDTQVICIFAIGYFVWDIYISTMYSTFPFVVHGIISTVVFCIGLKPYIQYYAPVFLMFELSNPSLNFRWFGIKFLPQKSKFCSLLLLLNNLTLMVVFFAARIAWGWFQIGKLCYDFYQVRNEPGFLVFDTIVILAGNFVLDILNVIWFSTMVSVAAKVLKKGESVDKVTKNEQ",Km,[2],16.7 µM
same,kcat,[2],2.225 s⁻¹
"FLD-1 (Caenorhabditis elegans) (protein, codon-optimised, C-terminal His tag cut off by Factor Xa; expressed in S. cerevisiae BJ2168; purified in LMNG) MRQLAELLTDLLGPVPTMFLWVIVSFAFFRALQFIVRWYLFGKWTWPNFNFFDIRNRIRRRRRGGQEAENTENPPENEAEAGEQVEQEPEPDSRDLSAIPPNKKWRISNECVSLFHSVISGLWAAYALLYYKQLVQDLVNYRCDVAINLVLMSAGYLFHDLVDLLVNEQSARIIELLFHHVVVLSAFAVTMFFNRFLGVVVFGLLMELNSIFLHSRSLLNLYGVDKKSPSFRIIALLNMVTLFAFRLCVSAYLVYFVVVSIPDLEWYVSIINGLVIASLASTNTVLTYRLLAADGLLGSRRTRRTPAATAETQVGDVESGPLRTQVEDEDHHTIGVQTIHGTTEDATQTV",Km,[3],10.1 µM
same,kcat,[3],0.608 s⁻¹
